According to patent US6500430B1, “Product and process to regulate actin polymerization in T lymphocytes” (National Jewish Medical and Research Center, priority 1995, dated 2002):

How the values were obtained:
TCR-ζ = experiment: Cell-free association of TCR-ζ with the actin cytoskeleton (detergent soluble lysate, newly polymerized pellet); format: biochemical, murine
Protocol: Freshly isolated murine thymocytes or lymph node T cells, or CD25/ζ-expressing T cell hybridomas, were washed 3 times in BSS and incubated in the presence or absence of cytochalasin D for 1.5 hrs at 4° C., solubilized with 0.5% NP-40 in a Tris buffered saline solution (TBS; 150 mM NaCl, 10 mM Tris, pH 7.3) containing protease and phosphatase inhibitors (0.2 mM VO3, 10 mM NaF, 1 mM PMSF, and 1 mg/ml each of Aprotinin, Leupeptin, and α-l-antitrypsin) and centrifuged at 10,000 rpm for 10 min to pellet the insoluble material. […] To increase actin polymerization, the Mg^2+ concentration was increased to 2 mM. […] Immunoprecipitation of the detergent soluble fraction with anti-TCR-ζ antibody was then performed as described in Example 4. The pellet and the anti-TCR-ζ immunoprecipitate were resolved by SDS-PAGE gel electrophoresis and immunoblotted with anti-TCR-ζ antibody.

IL-2 production = IL-2 production by T cells expressing chimeric molecules after antibody cross-linking; format: cell-based; settings: for IL-2 production, fold less than the wild-type CD8/ζ: maximal stimulation with anti-CD8-α antibody, 24 hours, FIG. 4
Protocol: Microcultures of 0.25 ml were prepared containing 10^5 responding T cells expressing CD8/ζ, CD8/ζD67-126, CD8/ζY153E, CD25/ζ or CD25/ζY153E. For stimulation, microtiter wells were precoated with 50 μl of a phosphate-buffered saline solution containing varying concentrations of purified anti-CD8-α antibody (19/178) or anti-hCD25 antibody (B1.49.9) to cross-link the CD8/ζ, CD8/ζD67-126 and CD8/ζY153E, or CD25/ζ and CD25/ζY153E, respectively, on the surface of the T cells. Control wells were coated with an irrelevant antibody. After 2 hours at room temperature and 1 hr at 4° C., the wells were washed three times with fetal calf serum-containing tissue culture medium. […]. After 24 hours in culture, the supernatants were harvested and assayed for IL-2 content using methods generally described in Gillis et al. (J. Immunol. 120:2027-2032, 1978). A concentration of 1 U/ml of IL-2 was the minimum detectable in this assay.

[1] = test system: BW 5147 α−β− thymoma transfectants; experiment: Association of chimeric or truncated TCR-ζ molecules with the cytoskeleton upon receptor ligation (immunoblot of detergent insoluble pellet); format: cell-based; settings: substitution of the distal COOH-terminal tyrosine of the third ITAM

## [Mg+2] [Mg^2+, reference compound]
TCR-ζ; 2 mM Mg2+ alone
  TCR-ζ binding with actin polymerization induced in vitro: without additional TCR-ζ binding

## CD8/ζD67-126: truncated CD8/ζ chimera expressing only intact ζc domain (SEQ ID NO:29) (RAKFSRSAETAANLQGTKGERRRGKGHDGLYQGLSTATKDTYDALHMQTLAPR)
IL-2 production
  IL-2 production, fold less than the wild-type CD8/ζ: 40 fold

B1: CD25/ζ: chimera of extracellular and transmembrane regions of CD25 and the cytoplasmic domain of TCR-ζ (protein)
chain: ELCDDDPPEIPHATFKAMAYKEGTMLNCECKRGFRRIKSGSLYMLCTGNSSHSSWDNQCQCTSSATRNTTKQVTPQPEEQKERKTTEMQSPMQPVDQASLPGHCREPPPWENEATERIYHFVVGQMVYYQCVQGYRALHRGPAESVCKMTHGKTRWTQPQLICTGEMETSQFPGEEKPQASPEGRPESETSCLVTTTDFQIQTEMAATMETSIFTTEYQVAVAGCVFLLISVLLLSGLRAKFSRSAETAANLQDPNQLYNELNLGRREEYDVLEKKRARDPEMGGKQQRRRNPQEGVYNALQKDKMAEAYSEIGTKGERRRGKGHDGLYQGLSTATKDTYDALHMQTLAPR
TCR-ζ; in vitro activating (MgATP) condition, depleted from the pellet under actin depolymerizing conditions
  Co-sedimentation with the actin cytoskeleton in vitro: co-sediments with the actin cytoskeleton

B2: CD25/ζY153F: CD25/ζ with the tyrosine at residue 153 substituted for a phenylalanine (SEQ ID NO:31) (protein)
chain: RAKFSRSAETAANLQDPNQLYNELNLGRREEYDVLEKKRARDPEMGGKQQRRRNPQEGVYNALQKDKMAEAYSEIGTKGERRRGKGHDGLYQGLSTATKDTFDALHMQTLAPR
[1]
  Effect of removal of the distal tyrosine (Y153F) on cytoskeletal association: almost completely abrogated cytoskeletal association
IL-2 production; receptor ligation
  Tyrosine phosphorylation of a set of proteins induced by receptor ligation, compared with the intact CD25/ζ chimera: qualitatively and quantitatively indistinguishable

B3: CD8/ζY153E: substituted CD8/ζ chimera (SEQ ID NO:30) (protein)
chain: RAKFSRSAETAANLQDPNQLYNELNLGRREEYDVLEKKRARDPEMGGKQQRRRNPQEGVYNALQKDKMAEAYSEIGTKGERRRGKGHDGLYQGLSTATKDTEDALHMQTLAPR
IL-2 production
  IL-2 production, fold less than the wild-type CD8/ζ: 100 fold
